Here are results for 2 molecules from patent publication US20240352439, “POLYPEPTIDES AND METHODS FOR MODIFYING NUCLEIC ACIDS” (THE UNIVERSITY OF CHICAGO, published 2024).

Test in all cases: kapp, same conditions
The target of data set [1] is TadA8.20 (Escherichia coli, UniProt P68398 SEQ:1-167). The note with it: tags: MBP removed by TEV; label: 5'-FAM. An excerpt: (§1) We compared adenine deamination efficiency of TadA8r in ssDNA with TadA8.20 and TadA8e. Maltose binding protein (MBP) fused TadA8r, TadA8.20, and TadA8e were purified through immobilized metal affinity chromatography. A Tobacco Etch Virus (TEV) protease cutting site was installed between MBP and TadA*. After TEV proteinase treatment, TadA8r, TadA8.20, and TadA8e were purified by immobilized metal affinity chromatography, ion-exchange chromatography, and size-exclusion chromatography. DNA deamination assays were carried out using […] ssDNA oligos under single-turnover conditions. A-to-I conversion was measured to determine the apparent first-order deamination rate constant (kₐₚₚ) (FIG. 2a). Both TadA8.20 and TadA8e preferred TA over GA (kₐₚₚ=0.07 min⁻¹ and 0.08 min⁻¹ for TadA 8.20 on GA and TA probes, respectively; kₐₚₚ=0.01 min⁻¹ and 0.02 min⁻¹ for TadA8e on GA and TA probes, respectively). The kₐₚₚ for TadA8r is much higher—0.55 min⁻¹ on the GA probe and 0.39 min⁻¹, on the TA probe).
(§2) The single turnover DNA deamination reactions containing 4 uM TadA variants in deamination buffer (50 mM Tris, 25 mM KCl, 2.5 mM MgCl₂, 2 mM dithiothreitol, and 10% (v/v) glycerol; pH 7.5) and 5′ Fluorescein labeled ssDNA (IDT) (Supplementary Table 6) to a final concentration of 200 nM. All reactions were incubated at 37° C. At various time points (0, 1, 5, 10, 20, 60, 180 mins), 10 uL reaction mixture were aliquoted and quenched by adding 10 ul of hot water and incubating at 95° C. for 10 min. Reaction mixtures were supplied with 100 ug/ml Proteinase K (Fisher scientific) and incubated at 55° C. for 3 h followed by inactivating at 85° C. for 30 mins and 95° C. for 15 mins. To detected adenosine deamination, reaction mixture was incubated with 10 unit of E. coli EndonucleaseV in 1×NEB4 buffer at 37° C. for 1 h. After cleavage by EndoV, samples were mixed with 2-fold PAGE gel loading buffer (95% formamide, 10 mM EDTA, 0.025% SDS), heated at 95° C. for 5 min, resolved on 15% (v/v) denaturing polyacrylamide gel. Uncleavage substrate and cleavage product were visualized by ChemiDoc XRS+(Bio-rad) under fluorescein channel. DNA band quantification were analyzed using ImageJ Software. Curve fitting was done in GraphPad.

Data set [2] concerns the target TadA8r (TadA-RA5.2) (Escherichia coli). The following applies: tags: 6xHis-MBP removed by TEV; label: 5'-FAM.
From the text: as §1, §2

The target in data set [3] is TadA8e (Escherichia coli). The note with it: tags: MBP removed by TEV; label: 5'-FAM.
From the text: as §1, §2

On to TGGGTTGGTTATCGTTTGGTGG (ssDNA) [TA probe], for which the activity was determined as 0.08 min⁻¹ in data set [1], 0.39 min⁻¹ in data set [2] and 0.02 min⁻¹ in data set [3].

As for TGGGTTGGTGATCGTTTGGTGG (ssDNA) [GA probe], the results for the activity in data set [1] and in data set [3] were 0.07 min⁻¹ and 0.01 min⁻¹, respectively.
